According to paper PMC12724371 (2025):

Target: T1, OC43 spike S2 subunit extracellular domain with T4 foldon (HCoV-OC43)
T1 chain: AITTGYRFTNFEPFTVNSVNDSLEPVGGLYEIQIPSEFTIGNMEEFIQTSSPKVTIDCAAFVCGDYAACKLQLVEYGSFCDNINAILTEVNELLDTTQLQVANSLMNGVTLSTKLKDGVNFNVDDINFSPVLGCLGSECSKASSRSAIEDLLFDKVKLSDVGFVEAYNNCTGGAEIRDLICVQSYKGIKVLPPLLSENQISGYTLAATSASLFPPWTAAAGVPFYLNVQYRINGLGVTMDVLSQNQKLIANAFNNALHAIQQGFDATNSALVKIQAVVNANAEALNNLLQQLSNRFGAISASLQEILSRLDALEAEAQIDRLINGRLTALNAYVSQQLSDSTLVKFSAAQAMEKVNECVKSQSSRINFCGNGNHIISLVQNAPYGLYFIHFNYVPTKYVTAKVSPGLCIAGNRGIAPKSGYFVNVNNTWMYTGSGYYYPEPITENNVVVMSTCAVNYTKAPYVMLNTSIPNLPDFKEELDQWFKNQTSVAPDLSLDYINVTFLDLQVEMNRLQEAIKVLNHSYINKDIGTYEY
Test: BLI

B1: 1871 Fab (Fab, V domains shown)
VH: EVQLVESGGGLVKPGGSLRLSCVASGFSFSIYSMNWVRQAPGKGLEWVSYISSSSSYKYYADSVKGRFSVSRDNAKNSLYLQLNGLRAEDTAVYYCARDGYCPKGVCTYYGMDVWGQGTTVTVSA
VL: EIVMTQSPATLSVSPGERVTLSCRASQSVRSRLAWFQQKPGQAPRLLIYDASIRATGIPARFSGSGSGTEFTLIISSLQSEDFAVYYCQQYDNWPPAYTFGQGTKLEIK
Work on B1 yielded a Kd of less than 1 pM.
